Measured values: patent US6706266, “Oncostatin M antagonists” (SmithKline Beecham Corporation)
Where “and” joins values, the source holds several entries; their conditions need not be identical. Identical values can stand only once.

T1: gp130-Fc fusion protein (human, UniProt P40189 23-619)
T1 construct: extracellular domain; not shown: Fc fragment of human IgG1
T1 sequence (looked up): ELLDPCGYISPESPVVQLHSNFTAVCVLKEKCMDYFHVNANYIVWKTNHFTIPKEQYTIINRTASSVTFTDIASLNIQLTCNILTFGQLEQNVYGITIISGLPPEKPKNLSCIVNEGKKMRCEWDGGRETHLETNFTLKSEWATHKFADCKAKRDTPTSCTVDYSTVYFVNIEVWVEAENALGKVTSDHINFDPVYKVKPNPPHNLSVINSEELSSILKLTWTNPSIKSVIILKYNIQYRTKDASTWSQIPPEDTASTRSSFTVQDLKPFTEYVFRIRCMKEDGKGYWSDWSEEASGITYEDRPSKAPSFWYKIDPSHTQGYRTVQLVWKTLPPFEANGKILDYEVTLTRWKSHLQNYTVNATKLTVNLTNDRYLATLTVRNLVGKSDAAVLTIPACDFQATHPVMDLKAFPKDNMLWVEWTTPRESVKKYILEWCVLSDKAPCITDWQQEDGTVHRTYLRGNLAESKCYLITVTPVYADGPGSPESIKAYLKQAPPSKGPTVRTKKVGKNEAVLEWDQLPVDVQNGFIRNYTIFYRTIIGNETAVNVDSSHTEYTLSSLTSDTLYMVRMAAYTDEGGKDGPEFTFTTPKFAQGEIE

T2: gp130 on HepG2 B6 cells (UniProt P40189 23-918, limits assumed)
T2 sequence (looked up): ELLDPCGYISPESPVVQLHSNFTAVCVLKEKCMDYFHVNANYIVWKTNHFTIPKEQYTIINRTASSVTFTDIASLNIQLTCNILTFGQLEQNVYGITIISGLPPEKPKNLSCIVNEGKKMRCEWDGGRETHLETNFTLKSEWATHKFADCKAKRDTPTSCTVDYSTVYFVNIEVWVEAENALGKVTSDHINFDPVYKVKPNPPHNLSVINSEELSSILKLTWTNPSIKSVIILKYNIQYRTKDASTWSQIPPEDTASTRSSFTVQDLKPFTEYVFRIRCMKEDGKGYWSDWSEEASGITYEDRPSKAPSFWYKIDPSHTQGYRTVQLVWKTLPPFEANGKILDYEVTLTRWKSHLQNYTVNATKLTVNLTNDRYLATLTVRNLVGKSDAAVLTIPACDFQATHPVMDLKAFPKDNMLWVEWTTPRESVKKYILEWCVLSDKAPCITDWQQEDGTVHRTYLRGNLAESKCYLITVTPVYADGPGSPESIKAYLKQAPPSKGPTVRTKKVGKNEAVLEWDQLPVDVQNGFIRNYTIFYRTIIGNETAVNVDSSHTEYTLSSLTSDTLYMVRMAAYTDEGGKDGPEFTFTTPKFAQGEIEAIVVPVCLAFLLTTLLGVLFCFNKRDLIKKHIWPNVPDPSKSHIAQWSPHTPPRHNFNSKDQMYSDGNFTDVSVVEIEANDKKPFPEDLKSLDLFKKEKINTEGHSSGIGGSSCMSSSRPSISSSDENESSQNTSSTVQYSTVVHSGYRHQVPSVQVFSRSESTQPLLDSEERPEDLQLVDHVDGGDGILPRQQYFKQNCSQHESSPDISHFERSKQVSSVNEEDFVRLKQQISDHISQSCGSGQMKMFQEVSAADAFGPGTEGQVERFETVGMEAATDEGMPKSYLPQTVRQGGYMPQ

B1: wild type OSM-GST fusion (ligand)
chain: AAIGSCSKEYRVLLGQLQKQTDLMQDTSRLLDPYIRIQGLDVPKLREHCRERPGAFPSEETLRGLGRRGFLQTLNATLGCVLHRLADLEQRLPKAQDLERSGLNIEDLEKLQMARPNILGLRNNIYCMAQLLDNSDTAEPTKAGRGASQPPTPTPASDAFQRKLEGCRFLHGYHRFMHSVGRVFSKWGESPNRSRR
notes: pGEX-derived fusion; also called wt OSM-GST; GST-hOSM; not shown: glutathione S-transferase (GST) encoded by modified pGEX-3X (Pharmacia), N-terminal, up to the Factor Xa site region sho
B2: OSM-GST mutant D22A (ligand, not shown: a dimerising Fc or GST; large carriers; small tags and cut ends)
chain: AAIGSCSKEYRVLLGQLQKQTALMQDTSRLLDPYIRIQGLDVPKLREHCRERPGAFPSEETLRGLGRRGFLQTLNATLGCVLHRLADLEQRLPKAQDLERSGLNIEDLEKLQMARPNILGLRNNIYCMAQLLDNSDTAEPTKAGRGASQPPTPTPASDAFQRKLEGCRFLHGYHRFMHSVGRVFSKWGESPNRSRR
notes: Alanine mutant of m4; also called (15)D22; 15 D22
B3: OSM-GST mutant E9A (ligand, not shown: a dimerising Fc or GST; large carriers; small tags and cut ends)
chain: AAIGSCSKAYRVLLGQLQKQTDLMQDTSRLLDPYIRIQGLDVPKLREHCRERPGAFPSEETLRGLGRRGFLQTLNATLGCVLHRLADLEQRLPKAQDLERSGLNIEDLEKLQMARPNILGLRNNIYCMAQLLDNSDTAEPTKAGRGASQPPTPTPASDAFQRKLEGCRFLHGYHRFMHSVGRVFSKWGESPNRSRR
notes: Alanine mutant of m4; also called (3)E9A; 3 E9A
B4: OSM-GST mutant Q20A (ligand)
chain: AAIGSCSKEYRVLLGQLQKATDLMQDTSRLLDPYIRIQGLDVPKLREHCRERPGAFPSEETLRGLGRRGFLQTLNATLGCVLHRLADLEQRLPKAQDLERSGLNIEDLEKLQMARPNILGLRNNIYCMAQLLDNSDTAEPTKAGRGASQPPTPTPASDAFQRKLEGCRFLHGYHRFMHSVGRVFSKWGESPNRSRR
notes: Alanine mutant of m4; also called (13)Q20A; 13 Q20A; not shown: Its linker is left out
B5: OSM-GST mutant D26A (ligand, not shown: a dimerising Fc or GST; large carriers; small tags and cut ends)
chain: AAIGSCSKEYRVLLGQLQKQTDLMQATSRLLDPYIRIQGLDVPKLREHCRERPGAFPSEETLRGLGRRGFLQTLNATLGCVLHRLADLEQRLPKAQDLERSGLNIEDLEKLQMARPNILGLRNNIYCMAQLLDNSDTAEPTKAGRGASQPPTPTPASDAFQRKLEGCRFLHGYHRFMHSVGRVFSKWGESPNRSRR
notes: Alanine mutant of m4; also called (27)D26A; 27 D26A
B6: OSM-GST mutant N123A (ligand, not shown: a dimerising Fc or GST; large carriers; small tags and cut ends)
chain: AAIGSCSKEYRVLLGQLQKQTDLMQDTSRLLDPYIRIQGLDVPKLREHCRERPGAFPSEETLRGLGRRGFLQTLNATLGCVLHRLADLEQRLPKAQDLERSGLNIEDLEKLQMARPNILGLRANIYCMAQLLDNSDTAEPTKAGRGASQPPTPTPASDAFQRKLEGCRFLHGYHRFMHSVGRVFSKWGESPNRSRR
notes: Alanine mutant of m4; also called (22)N123A; 22 N123A
B7: OSM-GST mutant K19A (ligand)
chain: AAIGSCSKEYRVLLGQLQAQTDLMQDTSRLLDPYIRIQGLDVPKLREHCRERPGAFPSEETLRGLGRRGFLQTLNATLGCVLHRLADLEQRLPKAQDLERSGLNIEDLEKLQMARPNILGLRNNIYCMAQLLDNSDTAEPTKAGRGASQPPTPTPASDAFQRKLEGCRFLHGYHRFMHSVGRVFSKWGESPNRSRR
notes: Alanine mutant of m4; also called (12)K19A; 12 K19A; not shown: Its linker is left out
B8: OSM-GST mutant K8A (ligand, not shown: a dimerising Fc or GST; large carriers; small tags and cut ends)
chain: AAIGSCSAEYRVLLGQLQKQTDLMQDTSRLLDPYIRIQGLDVPKLREHCRERPGAFPSEETLRGLGRRGFLQTLNATLGCVLHRLADLEQRLPKAQDLERSGLNIEDLEKLQMARPNILGLRNNIYCMAQLLDNSDTAEPTKAGRGASQPPTPTPASDAFQRKLEGCRFLHGYHRFMHSVGRVFSKWGESPNRSRR
notes: Alanine mutant of m4; also called (2)K8A; 2 K8A
B9: OSM-GST mutant G15A (ligand)
chain: AAIGSCSKEYRVLLAQLQKQTDLMQDTSRLLDPYIRIQGLDVPKLREHCRERPGAFPSEETLRGLGRRGFLQTLNATLGCVLHRLADLEQRLPKAQDLERSGLNIEDLEKLQMARPNILGLRNNIYCMAQLLDNSDTAEPTKAGRGASQPPTPTPASDAFQRKLEGCRFLHGYHRFMHSVGRVFSKWGESPNRSRR
notes: Alanine mutant of m4; also called (8)G15A; 8 G15A; not shown: Its linker is left out
B10: OSM-GST mutant Q16A (ligand)
chain: AAIGSCSKEYRVLLGALQKQTDLMQDTSRLLDPYIRIQGLDVPKLREHCRERPGAFPSEETLRGLGRRGFLQTLNATLGCVLHRLADLEQRLPKAQDLERSGLNIEDLEKLQMARPNILGLRNNIYCMAQLLDNSDTAEPTKAGRGASQPPTPTPASDAFQRKLEGCRFLHGYHRFMHSVGRVFSKWGESPNRSRR
notes: Alanine mutant of m4; also called (9)Q16A; 9 Q16A; not shown: Its linker is left out
B11: OSM-GST mutant G120A (ligand, not shown: a dimerising Fc or GST; large carriers; small tags and cut ends)
chain: AAIGSCSKEYRVLLGQLQKQTDLMQDTSRLLDPYIRIQGLDVPKLREHCRERPGAFPSEETLRGLGRRGFLQTLNATLGCVLHRLADLEQRLPKAQDLERSGLNIEDLEKLQMARPNILALRNNIYCMAQLLDNSDTAEPTKAGRGASQPPTPTPASDAFQRKLEGCRFLHGYHRFMHSVGRVFSKWGESPNRSRR
notes: Alanine mutant of m4; also called (20)G120; 20 G120A

What was measured:
gp130-Fc fusion protein [1] = biological target: T1, gp130-Fc fusion protein; assay: competition ELISA: OSM-GST titrated against plate-bound wt OSM for gp130-Fc; mean
Procedure: (§1) Plates were washed (×6 in PBS 0.05% tween 20, using Skatron Plate washer), tapped dry and blocked to reduce non-specific binding (200 µl/well, 1% BSA/PBS). Following 1 h incubation (room temperature on a shaking platform) the plates were tapped dry and wild type (wt) or mutant OSM-GST from Example 9b added (50 µl/well, 20–0.002 µg/ml, titrated in 1%BSA/PBS). As a positive control polyclonal anti-human OSM antibody (R&D Systems) was also tested (20–0.02 µg/ml). […] Following a 5 h incubation (room temperature on a shaking platform) the plates were washed (×6) and developed using ELISA Amplification System (Life Technologies) as manufacturer's instructions and the OD measured at 490 nm.

gp130 on HepG2 B6 cells = biological target: T2, gp130 on HepG2 B6 cells; assay: cell-based or functional assay
gp130-Fc fusion protein [2] = biological target: T1, gp130-Fc fusion protein; assay: competition ELISA: OSM-GST titrated against plate-bound wt OSM for gp130-Fc; single experiment
Procedure: as §1

Binder	IC50 (gp130-Fc fusion protein [1])	sPAP HepG2 B6 assay: Expt 1 % (EC50 as % of wild type EC50) (gp130 on HepG2 B6 cells)	sPAP HepG2 B6 assay: Expt 1 EC50 (gp130 on HepG2 B6 cells)	sPAP HepG2 B6 assay: Expt 2 % (EC50 as % of wild type EC50) (gp130 on HepG2 B6 cells)	sPAP HepG2 B6 assay: Expt 2 EC50 (gp130 on HepG2 B6 cells)	sPAP HepG2 B6 assay: Mean % of wild type EC50 (gp130 on HepG2 B6 cells)	IC50 (gp130-Fc fusion protein [2])
B1	0.139 µg/mL	100%	0.024 µg/mL	100%	0.032 µg/mL	100%	–
B2	0.071 µg/mL	152%	0.0367 µg/mL	50%	0.016 µg/mL	101%	0.04 µg/mL and 0.08 µg/mL and 0.092 µg/mL
B3	0.156 µg/mL	98%	0.0236 µg/mL	27%	0.0089 µg/mL	62.5%	0.208 µg/mL and 0.163 µg/mL and 0.097 µg/mL
B4	5 µg/mL	–	–	–	–	–	4.13 µg/mL and 5.57 µg/mL and 4.1 µg/mL and 6.2 µg/mL
B5	0.31 µg/mL	81%	0.0195 µg/mL	79%	0.0255 µg/mL	80%	0.17 µg/mL and 0.28 µg/mL and 0.481 µg/mL
B6	2.96 µg/mL	157%	0.0379 µg/mL	154%	0.0497 µg/mL	156%	–
B7	0.116 µg/mL	98%	0.0236 µg/mL	37%	0.0119 µg/mL	67.5%	–
B8	0.138 µg/mL	66%	0.016 µg/mL	38%	0.0125 µg/mL	52%	–
B9	0.155 µg/mL	87%	0.021 µg/mL	55%	0.0178 µg/mL	71%	0.09 µg/mL and 0.203 µg/mL and 0.171 µg/mL
B10	–	–	–	–	–	–	> 10 µg/mL
B11	3.09 µg/mL	–	–	–	–	–	3.65 µg/mL and 2.68 µg/mL and 2.95 µg/mL
